Data on one molecule can be found in patent CN111171151A (FOSHAN CANTON BIOTECHNOLOGY CO LTD; UNIV JINAN, dated 2020).

A word on the EC50: it is the concentration needed to bring the measured effect to its halfway point. Read a low EC50 as greater potency.

Experiment [1] deals with T1, EGFR-ECD 3 重组蛋白 (EGFR胞外段结构域3) (UniProt P00533 334-504, limits assumed).
T1 construct: domain: EGFR胞外段结构域3 (EGFR-ECD 3); Secreted from transiently transfected 293F cells (pCMV-EGFR-ECD3) and purified on a nickel column; also called EGFR胞外段的CD3区域片段; EGFR-ECD 3 纯化蛋白; not shown: purified on a nickel column, detected with anti
As to the kind of experiment: ELISA, coated EGFR-ECD3 100 ng/well, NbH3 from 40 μg/mL in 1:2 dilutions. Background: ELISA stands for enzyme-linked immunosorbent assay.

In experiment [2] the target is T1, EGFR-ECD 3 重组蛋白 (EGFR胞外段结构域3). The experiment can be described thus: ELISA, coated proteins 100 ng/well (EGFR-ECD3 against EGF, bFGF, Her2), anti-HA detection.

B1: 抗EGFR纳米抗体 Nb H3 (VHH)
VHH: QVQLQESGGGSVQAGGSLNLSCAVSGYTGCKNGMSWYRQAPGKEREFVSGIDRDGSPSYADSVKGRFTISQDNAKNIVFLQMNSLRPEDTAMYYCATNPQRNIYGGSWCNYWGQGTQVTVSS
notes: From a Bactrian camel immunised with EGFR-ECD3; expressed in E. coli WK6 from the pComb-3X plasmid and purified on a nickel column; not shown: tags from the pComb-3X vector (purified on a nickel column, detected with anti-H)
B1: the EC50 in experiment [1] is 8.76 µg/mL. In experiment [2], the “ratio of binding (OD) against the other control proteins” value is over 2.
